The assay addresses T1, purified FR-α (UniProt P15328 25-234, limits assumed).
T1 construct: also called folate receptor-alpha; alpha-folate receptor
Put plainly: surface plasmon resonance spectroscopy. For orientation: SPR reads the build-up and loss of mass on a sensor chip optically.

T1 sequence (P15328 25-234 limits assumed): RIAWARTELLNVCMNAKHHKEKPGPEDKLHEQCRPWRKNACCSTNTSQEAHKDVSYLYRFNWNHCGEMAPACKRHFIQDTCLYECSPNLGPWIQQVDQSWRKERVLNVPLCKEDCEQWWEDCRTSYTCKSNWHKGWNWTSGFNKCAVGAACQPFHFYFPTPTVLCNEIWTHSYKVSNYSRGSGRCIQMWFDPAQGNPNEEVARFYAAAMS

B1: anti-FR-α antibody comprising a heavy chain comprising an amino acid sequence of SEQ ID NO:5 and a light chain comprising an amino acid sequence of SEQ ID NO:2 (antibody, human IgG1, kappa, V domains shown)
VH: EVQLVESGGGVVQPGRSLRLSCSASGFTFSGYGLSWVRQAPGKGLEWVAMISSGGSYTYYADSVKGRFAISRDNAKNTLFLQMDSLRPEDTGVYFCARHGDDPAWFAYWGQGTPVTVSS
VL: DIQLTQSPSSLSASVGDRVTITCSVSSSISSNNLHWYQQKPGKAPKPWIYGTSNLASGVPSRFSGSGSGTDYTFTISSLQPEDIATYYCQQWSSYPYMYTFGQGTKVEIKR
notes: also called antibody of the invention; humanized anti-FR-α antibody
B1 registered a Kd of 2.23 nM, a koff of roughly 0.000502 s⁻¹ and a kon of roughly 225000 M⁻¹ s⁻¹.

One may read the Kd as the equilibrium constant for the complex coming apart. A high value points to weaker binding. The term koff denotes the first-order rate constant of dissociation. Higher therefore signals fast dissociation. The term kon denotes a measure of how fast the partners come together. Higher therefore signals fast association.

Values taken from patent US20170184603A1 (MORPHOTEK, published 2017).
